Data published in PMC11344281 (Protein Science : A Publication of the Protein Society, 2024).

B1: Use1 SNARE domain (aa 174–239) (domain or fragment)
chain: QRHQGLQEKLAEEMLGLARSLKTNTLAAQSVIKKDNQTLSHSLKMADQNLEKLKLESERLEQHAQK
B3: syntaxin 18 SNARE domain (aa 229–312) (domain or fragment)
chain: EEIQMFEQENQRLIGEMNSLFDEVRQIEGKVVEISRLQEIFTEKVLQQETEIDSIHQLVVGATENIKEGNEDIREAIKNNAGFR

Experiments:
[1] = biological target: B3; test: native gel or EMSA + SEC
[2] = biological target: B3; test: native gel or EMSA
[3] = biological target: synaptobrevin 2 (aa 1–96) (Rattus norvegicus, UniProt P63045 1-96); test: native gel or EMSA + SEC
Chain of synaptobrevin 2 (aa 1–96) (P63045 1-96): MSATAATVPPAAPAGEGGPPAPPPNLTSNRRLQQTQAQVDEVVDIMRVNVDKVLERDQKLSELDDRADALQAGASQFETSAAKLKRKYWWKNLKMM

[4] = biological target: B1; test: native gel or EMSA + SEC

Binder: B1
- binding result [1]: binds

B2: U_SNAP (Sec20, aa 133–198; Use1, aa 174–239), chimeric Qbc-SNARE with the SNAP-25 linker (other)
chain: QTSSSITESLMGISRMMSQQVQQSEEAMQTLVSSSRTLLDANEEFKSMSGTIQLGRKLITKYNRREGLSVSPSNKLKSSDAYKKAWGNNQDGVVASQPARVVDEREQMAISGGFIRRVTNDQRHQGLQEKLAEEMLGLARSLKTNTLAAQSVIKKDNQTLSHSLKMADQNLEKLKLESERLEQHAQK
- binding result [2]: binds

Binder: B3
- binding result [3]: binds

B4: Sec20 SNARE domain (aa 133–198) (domain or fragment)
chain: QTSSSITESLMGISRMMSQQVQQSEEAMQTLVSSSRTLLDANEEFKSMSGTIQLGRKLITKYNRRE
- binding result [4]: binds
- binding result [1]: binds
